Source: patent publication US20180086849A1 (Hoffmann-La Roche, published 2018)

T1: cynomolgus MCSP D3 (cynomolgus, UniProt Q6UVK1 1582-2224 (human entry))
T1 construct: also called cynomolgus homologue; not shown: C-terminal tag
T1 chain: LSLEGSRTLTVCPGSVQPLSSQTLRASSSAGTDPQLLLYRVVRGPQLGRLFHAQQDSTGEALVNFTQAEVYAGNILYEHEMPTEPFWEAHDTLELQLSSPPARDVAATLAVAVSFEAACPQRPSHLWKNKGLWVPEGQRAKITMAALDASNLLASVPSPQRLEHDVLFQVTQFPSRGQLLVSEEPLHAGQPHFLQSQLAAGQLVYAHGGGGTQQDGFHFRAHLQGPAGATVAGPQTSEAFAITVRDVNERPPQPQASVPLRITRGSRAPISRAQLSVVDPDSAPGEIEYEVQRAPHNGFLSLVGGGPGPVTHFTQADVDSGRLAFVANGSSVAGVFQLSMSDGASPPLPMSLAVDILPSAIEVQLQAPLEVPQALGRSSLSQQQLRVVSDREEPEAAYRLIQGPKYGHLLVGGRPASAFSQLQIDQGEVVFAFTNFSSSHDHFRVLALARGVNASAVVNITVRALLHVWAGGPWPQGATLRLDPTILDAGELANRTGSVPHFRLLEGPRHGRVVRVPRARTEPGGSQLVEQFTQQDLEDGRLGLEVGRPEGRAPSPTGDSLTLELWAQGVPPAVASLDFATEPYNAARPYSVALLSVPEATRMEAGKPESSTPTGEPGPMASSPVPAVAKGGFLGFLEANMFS

T2: hu-MCSP(D3 domain)-avi-his (human, UniProt Q6UVK1 1582-2224, biotinylated where used for selection or for coupling to the SA chip)
T2 construct: also called human MCSP(D3 domain)-avi-his; human MCSP D3
T2 sequence: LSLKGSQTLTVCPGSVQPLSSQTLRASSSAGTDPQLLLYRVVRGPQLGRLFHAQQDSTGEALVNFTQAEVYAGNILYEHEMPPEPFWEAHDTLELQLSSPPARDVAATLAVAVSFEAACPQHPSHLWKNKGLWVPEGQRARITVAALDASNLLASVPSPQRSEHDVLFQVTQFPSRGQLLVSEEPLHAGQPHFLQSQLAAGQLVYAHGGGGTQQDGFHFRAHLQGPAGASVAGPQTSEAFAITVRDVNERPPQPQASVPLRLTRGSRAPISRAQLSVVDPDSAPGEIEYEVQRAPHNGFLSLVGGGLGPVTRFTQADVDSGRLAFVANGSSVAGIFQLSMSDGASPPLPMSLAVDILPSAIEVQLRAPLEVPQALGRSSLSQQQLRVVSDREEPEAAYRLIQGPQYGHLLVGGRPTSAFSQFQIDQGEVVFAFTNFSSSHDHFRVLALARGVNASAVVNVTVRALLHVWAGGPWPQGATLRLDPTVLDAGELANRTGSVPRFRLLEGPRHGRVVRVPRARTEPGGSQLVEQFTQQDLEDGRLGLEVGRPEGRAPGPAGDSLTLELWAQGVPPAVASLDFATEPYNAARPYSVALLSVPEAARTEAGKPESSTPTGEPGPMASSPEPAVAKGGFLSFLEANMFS


Tests used:
cynomolgus MCSP D3 = molecular target: T1, cynomolgus MCSP D3; assay: SPR (ProteOn XPR36), IgG KD against parental M4-3/ML2
Method: (§1) Briefly, carboxymethylated dextran biosensor chips (CM5, GE Healthcare) were activated with N-ethyl-N′-(3-dimethylaminopropyl)-carbodiimide hydrochloride (EDC) and N-hydroxysuccinimide (NHS) according to the supplier's instructions. Anti-human F(ab′)2 fragment specific capture antibody was diluted with 10 mM sodium acetate, pH 5.0 at 50 μg/ml before injection at a flow rate of 10 μl/minute to achieve approximately up to 10.000 response units (RU) of coupled capture antibody. Following the injection of the capture antibody, 1 M ethanolamine was injected to block unreacted groups. For kinetics measurements, Fabs from bacterial supernatant or purified Fabs are injected at a flow rate of 10 ul/minute for 300 s and a dissociation of 300 s for capture baseline stabilization. […] The surface of the sensorchip was regenerated by injection of glycine pH 1.5 for 30 s at 90 ul/min followed by injection of NaOH for 20 s at the same flow rate. Association rates (kon) and dissociation rates (koff) were calculated using a simple one-to-one Langmuir binding model (ProteOn XPR36 Evaluation Software or Scrubber software (BioLogic)) by simultaneously fitting the association and dissociation sensorgrams. The equilibrium dissociation constant (KD) was calculated as the ratio koff/kon. […] Since CDR1 and 2 of the light chain were randomized independent from CDR3, the obtained CDRs were combined during IgG conversion.
(§2) In the IgG format affinities were measured again to the human MCSP antigen (SEQ ID NO. 390), in addition also to the cynomolgus homologue (SEQ ID NO. 389). Method exactly as described for the Fab fragments, just purified IgG from mammalian production were used.

[1] = molecular target: T2, hu-MCSP(D3 domain)-avi-his; assay: as above
Method: as §1, §2

Comparative binding affinity - Fold increase over parent (cynomolgus MCSP D3)	Comparative binding affinity - Fold increase over parent [1]	Binder
2.9 fold	4 fold	M4-3(B7)/ML2 (IgG) (antibody, V domains shown, Human IgG1 format) VH: QVQLQESGPGLVKPSQTLSLTCTVSGGSITSGYYWNWIRQHPGKGLEWIGYITFDGINNYNPSLKSRVTISRDTSKNQFSLKLSSVTAADTAVYYCADFDYWGQGTLVTVSS VL: DIQMTQSPSSLSASVGDRVTITCRASQGIRNYLNWYQQKPGKAPKLLIYYTSSLHSGVPSRFSGSGSGTDFTLTISSLQPEDFATYYCQQYSKLPWTFGQGTKVEIK
3.3 fold	4 fold	M4-3(C1)/ML2(E10) (IgG) (antibody, V domains shown, Human IgG1 format) VH: QVQLQESGPGLVKPSQTLSLTCTVSGGSITSGYYWNWIRQHPGKGLEWIGYITFDGSNNYNPSLKSRVTISRDTSKNQFSLKLSSVTAADTAVYYCADFDYWGQGTLVTVSS VL: DIQMTQSPSSLSASVGDRVTITCRASYGIRGYLNWYQQKPGKAPKLLIYYTSSLHSGVPSRFSGSGSGTDFTLTISSLQPEDFATYHCQQYSKLPWTFGQGTKVEIK
1 fold	2 fold	M4-3/ML2 (E10) (IgG) (antibody, V domains shown, Human IgG1 format) VH: QVQLQESGPGLVKPSQTLSLTCTVSGGSITSGYYWNWIRQHPGKGLEWIGYITYDGSNNYNPSLKSRVTISRDTSKNQFSLKLSSVTAADTAVYYCADFDYWGQGTLVTVSS VL: DIQMTQSPSSLSASVGDRVTITCRASYGIRGYLNWYQQKPGKAPKLLIYYTSSLHSGVPSRFSGSGSGTDFTLTISSLQPEDFATYHCQQYSKLPWTFGQGTKVEIK
10 fold	28.6 fold	M4-3(A7)/ML2(G3) (IgG) (antibody, V domains shown, Human IgG1 format) VH: QVQLQESGPGLVKPSQTLSLTCTVSGGSITDGYYWNWIRQHPGKGLEWIGYITFDGRNNYNPSLKSRVTISRDTSKNQFSLKLSSVTAADTAVYYCADFDYWGQGTLVTVSS VL: DIQMTQSPSSLSASVGDRVTITCRASQGIRNYLNWYQQKPGKAPKLLIYYTSSLHSGVPSRFSGSGSGTDYTLTISSLQPEDFATYYCQQYSALPWTFGQGTKVEIK
2 fold	2.5 fold	M4-3(A7)/ML2 (IgG) (antibody, V domains shown, Human IgG1 format) VH: QVQLQESGPGLVKPSQTLSLTCTVSGGSITDGYYWNWIRQHPGKGLEWIGYITFDGRNNYNPSLKSRVTISRDTSKNQFSLKLSSVTAADTAVYYCADFDYWGQGTLVTVSS VL: DIQMTQSPSSLSASVGDRVTITCRASQGIRNYLNWYQQKPGKAPKLLIYYTSSLHSGVPSRFSGSGSGTDFTLTISSLQPEDFATYYCQQYSKLPWTFGQGTKVEIK
2.9 fold	6.7 fold	M4-3(A7)/ML2(E10) (IgG) (antibody, V domains shown, Human IgG1 format) VH: QVQLQESGPGLVKPSQTLSLTCTVSGGSITDGYYWNWIRQHPGKGLEWIGYITFDGRNNYNPSLKSRVTISRDTSKNQFSLKLSSVTAADTAVYYCADFDYWGQGTLVTVSS VL: DIQMTQSPSSLSASVGDRVTITCRASYGIRGYLNWYQQKPGKAPKLLIYYTSSLHSGVPSRFSGSGSGTDFTLTISSLQPEDFATYHCQQYSKLPWTFGQGTKVEIK
3.3 fold	6.7 fold	M4-3/ML2(G3) (IgG) (antibody, V domains shown, Human IgG1 format) VH: QVQLQESGPGLVKPSQTLSLTCTVSGGSITSGYYWNWIRQHPGKGLEWIGYITYDGSNNYNPSLKSRVTISRDTSKNQFSLKLSSVTAADTAVYYCADFDYWGQGTLVTVSS VL: DIQMTQSPSSLSASVGDRVTITCRASQGIRNYLNWYQQKPGKAPKLLIYYTSSLHSGVPSRFSGSGSGTDYTLTISSLQPEDFATYYCQQYSALPWTFGQGTKVEIK
2.5 fold	2.2 fold	M4-3(C1)/ML2 (IgG) (antibody, V domains shown, Human IgG1 format) VH: QVQLQESGPGLVKPSQTLSLTCTVSGGSITSGYYWNWIRQHPGKGLEWIGYITFDGSNNYNPSLKSRVTISRDTSKNQFSLKLSSVTAADTAVYYCADFDYWGQGTLVTVSS VL: DIQMTQSPSSLSASVGDRVTITCRASQGIRNYLNWYQQKPGKAPKLLIYYTSSLHSGVPSRFSGSGSGTDFTLTISSLQPEDFATYYCQQYSKLPWTFGQGTKVEIK
6.7 fold	10 fold	M4-3(C1)/ML2(C5) (IgG) (antibody, V domains shown, Human IgG1 format) VH: QVQLQESGPGLVKPSQTLSLTCTVSGGSITSGYYWNWIRQHPGKGLEWIGYITFDGSNNYNPSLKSRVTISRDTSKNQFSLKLSSVTAADTAVYYCADFDYWGQGTLVTVSS VL: DIQMTQSPSSLSASVGDRVTITCRASRGIREYLNWYQQKPGKAPKLLIYYTGSLHSGVPSRFSGSGSGTDFTLTISSLQPEDFATYYCQQYSELPWTFGQGTKVEIK
2 fold	5 fold	M4-3/ML2 (C5) (IgG) (antibody, V domains shown, Human IgG1 format) VH: QVQLQESGPGLVKPSQTLSLTCTVSGGSITSGYYWNWIRQHPGKGLEWIGYITYDGSNNYNPSLKSRVTISRDTSKNQFSLKLSSVTAADTAVYYCADFDYWGQGTLVTVSS VL: DIQMTQSPSSLSASVGDRVTITCRASRGIREYLNWYQQKPGKAPKLLIYYTGSLHSGVPSRFSGSGSGTDFTLTISSLQPEDFATYYCQQYSELPWTFGQGTKVEIK
2 fold	2.2 fold	M4-3(B8)/ML2 (IgG) (antibody, V domains shown, Human IgG1 format) VH: QVQLQESGPGLVKPSQTLSLTCTVSGGSITSGYYWNWIRQHPGKGLEWIGYITFDGRNNYNPSLKSRVTISRDTSKNQFSLKLSSVTAADTAVYYCADFDYWGQGTLVTVSS VL: DIQMTQSPSSLSASVGDRVTITCRASQGIRNYLNWYQQKPGKAPKLLIYYTSSLHSGVPSRFSGSGSGTDFTLTISSLQPEDFATYYCQQYSKLPWTFGQGTKVEIK
2 fold	5 fold	M4-3(D6)/ML2 (IgG) (antibody, V domains shown, Human IgG1 format) VH: QVQLQESGPGLVKPSQTLSLTCTVSGGSITSGYYWNWIRQHPGKGLEWIGYITFDGKNNYNPSLKSRVTISRDTSKNQFSLKLSSVTAADTAVYYCADFDYWGQGTLVTVSS VL: DIQMTQSPSSLSASVGDRVTITCRASQGIRNYLNWYQQKPGKAPKLLIYYTSSLHSGVPSRFSGSGSGTDFTLTISSLQPEDFATYYCQQYSKLPWTFGQGTKVEIK
2 fold	2.9 fold	M4-3/ML2 (C5/G3) (IgG) (antibody, V domains shown, Human IgG1 format) VH: QVQLQESGPGLVKPSQTLSLTCTVSGGSITSGYYWNWIRQHPGKGLEWIGYITYDGSNNYNPSLKSRVTISRDTSKNQFSLKLSSVTAADTAVYYCADFDYWGQGTLVTVSS VL: DIQMTQSPSSLSASVGDRVTITCRASRGIREYLNWYQQKPGKAPKLLIYYTGSLHSGVPSRFSGSGSGTDFTLTISSLQPEDFATYYCQQYSALPWTFGQGTKVEIK
